{"source": "patent US20040126819A1", "key": {"[1]": {"biological_target": "GDNF receptors on E10 embryonic chick sympathetic neurons", "assay": "saturation binding of 125I-GDNF to E10 chick sympathetic neurons, 4 C, filtration"}, "[2]": {"biological_target": "GDNF receptors on E10 embryonic chick sympathetic neurons", "assay": "steady-state saturation binding of 125I-GDNF to E10 embryonic chick sympathetic neurons, triplicates"}}, "data": [{"binder": "recombinant rat GDNF produced in Sf21 insect cells using a baculovirus expression system (ligand, UniProt Q07731 78-211, looked up, labeled with Na-^125I by the chloramine-T method where used as tracer) SPDKQAAALPRRERNRQAAAASPENSRGKGRRGQRGKNRGCVLTAIHLNVTDLGLGYETKEELIFRYCSGSCEAAETMYDKILKNLSRSRRLTSDKVGQACCRPVAFDDDLSFLDDSLVYHILRKHSAKRCGCI", "values": [{"measurement": "Kd", "setting": "[1]", "result": 0.4, "unit": "nM"}, {"measurement": "EC50 (read off the curve)", "setting": "[2]", "result": 0.4, "unit": "nM"}]}]}
